Among the data in patent US20260042834A1, “ANTI-CORTICOTROPIN-RELEASING HORMONE ANTIBODIES AND POLYCYSTIC OVARY SYNDROME” (HBM ALPHA THERAPEUTICS, INC., priority 2022, published 2026) are IC50 values, retold here.

The test system of experiment [1] is mouse CRHR2. Nature of the experiment: CRH-induced luciferase reporter blocking assay, CHO-CRE-mCRHR2 cells. Type of experiment: cell-based. How it is done: To create CHO-CRE-hCRHR1, -hCRHR2, -mCRHR1, and -mCRHR2 reporter cell lines, pcDNA3.1-hCRHR1, -hCRHR2, -mCRHR1, and -mCRHR2 were introduced into CHO-CRE cells established above by electroporation as described above. Selection antibiotics hygromycin at 500 μg/ml and G418 at 1,000 μg/ml were employed. Individual established stable cell lines were characterized by both CRH and forskolin stimulation. […]
(§1) Cells were digested by trypsin-EDTA (Life technologies, Cat #:12604-013), centrifuged at 1,000 rpm for 5 min, resuspended in growth medium, counted using a cell counter, seeded at a concentration of 5,000 cells per 100 μl in 96-well flat plates, and incubated overnight. 50 μl of 4× serially diluted antibodies was added (8 points, 1/4 diluted by growth medium) to plates containing CHO-CRE-hCRHR1 cells, and 50 μl of 4×CRH (4× is 2 nM, final is 0.5 nM) was added. Similarly, 4×CRH (4× is 0.4 nM, final is 0.1 nM) was added to CHO-CRE-hCRHR2 cells and CHO-CRE-mCRHR1 cells, and 4×CRH (4× is 20 nM, final is 5 nM) was added to CHO-CRE-mCRHR2 cells. Next, plates were incubated 4-6 hours at 37° C. in a CO2 incubator. 60 μl of culture medium was removed, to which was added 60 μl of Bio-Glo luciferase, followed by incubation for 10 min at RT. Plates were read in a luciferase plate reader (EnVision, PerkinElmer).
(In a reporter assay the amount or activity of a reporter protein is the signal.)

The test system of experiment [2] is human CRHR2. Nature of the experiment: CRH-induced luciferase reporter blocking assay, CHO-CRE-hCRHR2 cells. It counts as cell-based. How it is done: To create CHO-CRE-hCRHR1, -hCRHR2, -mCRHR1, and -mCRHR2 reporter cell lines, pcDNA3.1-hCRHR1, -hCRHR2, -mCRHR1, and -mCRHR2 were introduced into CHO-CRE cells established above by electroporation as described above. Selection antibiotics hygromycin at 500 μg/ml and G418 at 1,000 μg/ml were employed. Individual established stable cell lines were characterized by both CRH and forskolin stimulation.
Activated GPCR proteins increase production of the intracellular cAMP. CHO-CRE-human CRHR1 stable clone 11 was generated by introduction of pcDNA3.1-human CRHR1 under the selection of G418 and hygromycin. Human CRHR1 expression in CHO-CRE-hCRHR1 Clone 11 was confirmed by flow cytometry (data not shown). To further validate that the cell line was functional, CHO-CRE-hCRHR1 Clone 11 cells were treated with forskolin and CRH peptide. […] Subsequently CHO-CRE-hCRHR2 Clone 32, -mCRHR1 Clone 22, and -mCRHR2 Clone 8 cell lines were established using similar methodology and validated with CRH treatment (data not shown).
Blocking CRHR1 by small molecules or neutralization of CRH peptide can reduce luciferase expression if the CRH-CRHR1 system works in CHO-CRE-hCRHR1 cells. Antalarmin, a small molecule CRHR1 antagonist, blocked CRH-mediated luciferase expression in CHO-CRE-hCRHR1 Clone 11 (data not shown). Furthermore, sheep anti-CRH polyclonal antibody reduced CRH-mediated luciferase expression in these cells (data not shown). Likewise, sheep anti-CRH polyclonal antibody blocked CRH-mediated luciferase expression in CHO-CRE-hCRHR2, CHO-CRE-mCRHR1, and CHO-CRE-mCRHR2 cells (data not shown).
as §1

The mark [3] stands for this setting: CHO-CRE-hCRHR2 cells, 0.1 nM CRH.

Numbering of substitutions follows the chain as printed.

B1: PR302029: humanized variant of Series 5 mAb PR301777; VH SEQ ID NO: 255, VL SEQ ID NO: 310 (antibody, V domains shown)
VH: EVQLVESGGGLVQPGGSLRLSCAASGFTFSNYWMNWVRQAPGKGLEWVGEIRLKSNNYATHYAESVKGRFTISRDDSKNSLYLQMNSLKTEDTAVYYCTVGTLVYWGQGTLVTVSS
VL: DIVLTQSPDSLAVSLGERATINCRASQSVSTSTYNYMHWFQQKPGQPPKLLIKFASNLESGVPDRFSGSGSGTDFTLTISSLQAEDTAVYYCQHSWEIPYTFGQGTKLEIK
modifications: PR302029 VH, PR302031 VH, PR302034 VH; PR302029 VL, PR302036 VL, PR302043 VL, PR302050 VL, PR302064 VL
For the molecule B1, the concentration for half-maximal inhibition (IC50) in experiment [1] (CHO-CRE-mCRHR2 cells, 5 nM CRH) turned out to be 8.08 nM; in experiment [2] (setting [3]) it was 5.75 nM.

B2: PR302041: humanized variant of Series 5 mAb PR301777; VH SEQ ID NO: 256, VL SEQ ID NO: 312 (antibody, V domains shown)
VH: B1 VH with V2M, G49A, N79S, L81V
VL: DIQLTQSPSSLSASVGDRVTITCRASQSVSTSTYNYMHWFQQKPGKAPKLLIKFASNLESGVPSRFSGSGSGTDFTLTISSLQPEDTATYYCQHSWEIPYTFGQGTKLEIK
modifications: PR302036 VH, PR302038 VH, PR302041 VH; PR302034 VL, PR302041 VL, PR302048 VL, PR302055 VL, PR302069 VL
For the molecule B2, the IC50 in experiment [1] (CHO-CRE-mCRHR2 cells, 5 nM CRH) came out at 12.4 nM; in experiment [2] (setting [3]), 4.92 nM.

B3: PR302048: humanized variant of Series 5 mAb PR301777; VH SEQ ID NO: 257, VL SEQ ID NO: 312 (antibody, V domains shown)
VH: B1 VH with R19K, P41S, S80T, L81A, V100R
VL: B2 VL
modifications: PR302043 VH, PR302045 VH, PR302048 VH; PR302034 VL, PR302041 VL, PR302048 VL, PR302055 VL, PR302069 VL
Turning to B3, the IC50 in experiment [1] (CHO-CRE-mCRHR2 cells, 5 nM CRH) turned out to be 6.32 nM; in experiment [2] (setting [3]), 13.9 nM.

B4: PR302036: humanized variant of Series 5 mAb PR301777; VH SEQ ID NO: 256, VL SEQ ID NO: 310 (antibody, V domains shown)
VH: B1 VH with V2M, G49A, N79S, L81V
VL: B1 VL
modifications: PR302036 VH, PR302038 VH, PR302041 VH; PR302029 VL, PR302036 VL, PR302043 VL, PR302050 VL, PR302064 VL
For B4, the IC50 in experiment [1] (CHO-CRE-mCRHR2 cells, 5 nM CRH) came out at 5.42 nM; in experiment [2] (setting [3]), 2.21 nM.

B5: PR302043: humanized variant of Series 5 mAb PR301777; VH SEQ ID NO: 257, VL SEQ ID NO: 310 (antibody, V domains shown)
VH: B1 VH with R19K, P41S, S80T, L81A, V100R
VL: B1 VL
modifications: PR302043 VH, PR302045 VH, PR302048 VH; PR302029 VL, PR302036 VL, PR302043 VL, PR302050 VL, PR302064 VL
As for B5, the IC50 in experiment [1] (CHO-CRE-mCRHR2 cells, 5 nM CRH) was 6.17 nM; in experiment [2] (setting [3]), 5.25 nM.

B6: PR302034: humanized variant of Series 5 mAb PR301777; VH SEQ ID NO: 255, VL SEQ ID NO: 312 (antibody, V domains shown)
VH: B1 VH
VL: B2 VL
modifications: PR302029 VH, PR302031 VH, PR302034 VH; PR302034 VL, PR302041 VL, PR302048 VL, PR302055 VL, PR302069 VL
As to B6, the IC50 in experiment [1] (CHO-CRE-mCRHR2 cells, 5 nM CRH) was determined as 29.3 nM; in experiment [2] (setting [3]), 10.2 nM.

B7: PR302341-8: humanized variant of Series 10 mAb PR302341; VH SEQ ID NO: 281, VL SEQ ID NO: 340 (antibody, V domains shown)
VH: QVQLVQSGAEVKKPGASVKVSCKASGYTFTDYFMKWVRQAPGQGLEWMGVINPNNGDIFYNQKFKGRVTMTVDKSTSTAYMELSSLRSEDTAVYYCARGTDRALFAYWGQGTLVTVSS
VL: DVVMTQSPLSLPVTLGQPASISCRSGQSIVHSDGNTYLEWYQQRPGQSPRLLIYKVSNRFSGVPDRFSGSGSGTDFTLKISRVEAEDLGVYYCFQGSHIPWTFGGGTKVEIK
modifications: PR302341-10 VH, PR302341-11 VH, PR302341-12 VH, PR302341-14 VH,PR302341-67 VH, PR302341-68 VH, PR302341-69 VH, PR302341-7 VH,PR302341-8 VH, PR302341-9 VH; PR302341-19 VL, PR302341-20 VL, PR302341-21 VL, PR302341-22 VL,PR302341-23 VL, PR302341-28 VL, PR302341-29 VL, PR302341-2 VL,PR302341-41 VL, PR302341-55 VL, PR302341-56 VL, PR302341-57 VL,PR302341-
B7: the IC50 in experiment [1] (CHO-CRE-mCRHR2 cells, 5 nM CRH) amounted to 0.82 nM; in experiment [2] (setting [3]), 0.293 nM.

B8: PR302341-19: humanized variant of Series 10 mAb PR302341; VH SEQ ID NO: 282, VL SEQ ID NO: 340 (antibody, V domains shown)
VH: B7 VH with V72R, K74T, A79V
VL: B7 VL
modifications: PR302341-13 VH, PR302341-19 VH; PR302341-19 VL, PR302341-20 VL, PR302341-21 VL, PR302341-22 VL,PR302341-23 VL, PR302341-28 VL, PR302341-29 VL, PR302341-2 VL,PR302341-41 VL, PR302341-55 VL, PR302341-56 VL, PR302341-57 VL,PR302341-
For the molecule B8, the IC50 in experiment [1] (CHO-CRE-mCRHR2 cells, 5 nM CRH) came to 0.673 nM; in experiment [2] (setting [3]), 0.178 nM.

B9: PR302341-20: humanized variant of Series 10 mAb PR302341; VH SEQ ID NO: 283, VL SEQ ID NO: 340 (antibody, V domains shown)
VH: B7 VH with G44R, M70I, V72R, K74T, T76A
VL: B7 VL
modifications: PR302341-15 VH, PR302341-20 VH, PR302341-70 VH, PR302341-71 VH,PR302341-72 VH; PR302341-19 VL, PR302341-20 VL, PR302341-21 VL, PR302341-22 VL,PR302341-23 VL, PR302341-28 VL, PR302341-29 VL, PR302341-2 VL,PR302341-41 VL, PR302341-55 VL, PR302341-56 VL, PR302341-57 VL,PR302341-
For the molecule B9, the IC50 in experiment [1] (CHO-CRE-mCRHR2 cells, 5 nM CRH) is 0.602 nM; in experiment [1] (Table 9, mCrhr2), 1.98 nM; in experiment [2] (setting [3]), 0.263 nM; in experiment [2] (Table 9, hCRHR2), 1.21 nM.

B10: PR302341-10: humanized variant of Series 10 mAb PR302341; VH SEQ ID NO: 281, VL SEQ ID NO: 336 (antibody, V domains shown)
VH: B7 VH
VL: B7 VL with S7T, L11S, S48P, S72A
modifications: PR302341-10 VH, PR302341-11 VH, PR302341-12 VH, PR302341-14 VH,PR302341-67 VH, PR302341-68 VH, PR302341-69 VH, PR302341-7 VH,PR302341-8 VH, PR302341-9 VH; PR302341-10 VL, PR302341-24 VL, PR302341-26 VL, PR302341-43 VL,PR302341-44 VL, PR302341-45 VL, PR302341-4 VL
With B10, the IC50 in experiment [1] (CHO-CRE-mCRHR2 cells, 5 nM CRH) stood at 1.22 nM; in experiment [1] (Table 9, mCrhr2), 1.44 nM; in experiment [2] (setting [3]) it was 0.143 nM; in experiment [2] (Table 9, hCRHR2), 0.83 nM.

A word on the IC50: it is the concentration needed to halve the response being measured. A lower IC50 goes with higher potency.
